{"source": "the supplement of paper PMC11316812", "key": {"[1]": {"test_system": "MCF7", "experiment": "percentage of EdU-negative (G0-arrested) nuclei per well, 72 h; higher = more G0 arrest", "conditions": "reference: sequence is the full UniProt precursor, the tested protein was the secreted form or ectodomain"}, "[2]": {"test_system": "hTERT-HMEC", "experiment": "percentage of EdU-negative (G0-arrested) nuclei per well, 72 h; higher = more G0 arrest", "conditions": "reference: sequence is the full UniProt precursor, the tested protein was the secreted form or ectodomain"}, "[3]": {"conditions": "protein concentration 0.0225 µM"}, "[4]": {"conditions": "protein concentration 0.02175 µM"}, "[5]": {"conditions": "protein concentration 0.2175 µM"}, "[6]": {"conditions": "protein concentration 0.0322857 µM"}, "[7]": {"conditions": "protein concentration 0.0337143 µM"}, "[8]": {"conditions": "protein concentration 0.322857 µM"}, "[9]": {"conditions": "protein concentration 0.337143 µM"}}, "note": "± gives the standard deviation of the averaged measurements.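 Further: secreted proteins added to cultured cells, EdU pulse at the end, nuclei found by Hoechst imaging, EdU status from nuclear versus surrounding ring intensity ratio, PBS as neutral control.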", "data": [{"sequence": "MRARPRPRPLWATVLALGALAGVGVGGPNICTTRGVSSCQQCLAVSPMCAWCSDEALPLGSPRCDLKENLLKDNCAPESIEFPVSEARVLEDRPLSDKGSGDSSQVTQVSPQRIALRLRPDDSKNFSIQVRQVEDYPVDIYYLMDLSYSMKDDLWSIQNLGTKLATQMRKLTSNLRIGFGAFVDKPVSPYMYISPPEALENPCYDMKTTCLPMFGYKHVLTLTDQVTRFNEEVKKQSVSRNRDAPEGGFDAIMQATVCDEKIGWRNDASHLLVFTTDAKTHIALDGRLAGIVQPNDGQCHVGSDNHYSASTTMDYPSLGLMTEKLSQKNINLIFAVTENVVNLYQNYSELIPGTTVGVLSMDSSNVLQLIVDAYGKIRSKVELEVRDLPEELSLSFNATCLNNEVIPGLKSCMGLKIGDTVSFSIEAKVRGCPQEKEKSFTIKPVGFKDSLIVQVTFDCDCACQAQAEPNSHRCNNGNGTFECGVCRCGPGWLGSQCECSEEDYRPSQQDECSPREGQPVCSQRGECLCGQCVCHSSDFGKITGKYCECDDFSCVRYKGEMCSGHGQCSCGDCLCDSDWTGYYCNCTTRTDTCMSSNGLLCSGRGKCECGSCVCIQPGSYGDTCEKCPTCPDACTFKKECVECKKFDRGALHDENTCNRYCRDEIESVKELKDTGKDAVNCTYKNEDDCVVRFQYYEDSSGKSILYVVEEPECPKGPDILVVLLSVMGAILLIGLAALLIWKLLITIHDRKEFAKFEEERARAKWDTANNPLYKEATSTFTNITYRGT", "values": [{"measurement": "percentage of EdU-negative", "setting": "[1]; protein concentration 0.009 µM", "result": "26.2 ± 0.6", "unit": "%"}, {"measurement": "percentage of EdU-negative", "setting": "[1]; protein concentration 0.09 µM", "result": "27.7 ± 1.2", "unit": "%"}, {"measurement": "percentage of EdU-negative", "setting": "[2]; protein concentration 0.009 µM", "result": "4.78 ± 0.31", "unit": "%"}, {"measurement": "percentage of EdU-negative", "setting": "[2]; protein concentration 0.09 µM", "result": "16.9 ± 4.2", "unit": "%"}]}, {"sequence": "MEKIPVSAFLLLVALSYTLARDTTVKPGAKKDTKDSRPKLPQTLSRGWGDQLIWTQTYEEALYKSKTSNKPLMIIHHLDECPHSQALKKVFAENKEIQKLAEQFVLLNLVYETTDKHLSPDGQYVPRIMFVDPSLTVRADITGRYSNRLYAYEPADTALLLDNMKKALKLLKTEL", "values": [{"measurement": "percentage of EdU-negative", "setting": "[1]; [3]", "result": "25.2 ± 1.5", "unit": "%"}, {"measurement": "percentage of EdU-negative", "setting": "[1]; protein concentration 0.225 µM", "result": "25.7 ± 0.74", "unit": "%"}, {"measurement": "percentage of EdU-negative", "setting": "[2]; [3]", "result": "4.87 ± 0.93", "unit": "%"}, {"measurement": "percentage of EdU-negative", "setting": "[2]; protein concentration 0.225 µM", "result": "7.88 ± 0.32", "unit": "%"}]}, {"sequence": "MLLPLLLLLPMCWAVEVKRPRGVSLTNHHFYDESKPFTCLDGSATIPFDQVNDDYCDCKDGSDEPGTAACPNGSFHCTNTGYKPLYIPSNRVNDGVCDCCDGTDEYNSGVICENTCKEKGRKERESLQQMAEVTREGFRLKKILIEDWKKAREEKQKKLIELQAGKKSLEDQVEMLRTVKEEAEKPEREAKEQHQKLWEEQLAAAKAQQEQELAADAFKELDDDMDGTVSVTELQTHPELDTDGDGALSEAEAQALLSGDTQTDATSFYDRVWAAIRDKYRSEALPTDLPAPSAPDLTEPKEEQPPVPSSPTEEEEEEEEEEEEEAEEEEEEEDSEEAPPPLSPPQPASPAEEDKMPPYDEQTQAFIDAAQEARNKFEEAERSLKDMEESIRNLEQEISFDFGPNGEFAYLYSQCYELTTNEYVYRLCPFKLVSQKPKLGGSPTSLGTWGSWIGPDHDKFSAMKYEQGTGCWQGPNRSTTVRLLCGKETMVTSTTEPSRCEYLMELMTPAACPEPPPEAPTEDDHDEL", "values": [{"measurement": "percentage of EdU-negative", "setting": "[1]; [4]", "result": "27.5 ± 0.87", "unit": "%"}, {"measurement": "percentage of EdU-negative", "setting": "[1]; [5]", "result": "24.9 ± 0.62", "unit": "%"}, {"measurement": "percentage of EdU-negative", "setting": "[2]; [4]", "result": "5.19 ± 1.2", "unit": "%"}, {"measurement": "percentage of EdU-negative", "setting": "[2]; [5]", "result": "5.7 ± 0.68", "unit": "%"}]}, {"sequence": "MEKILILLLVALSVAYAAPGPRGIIINLENGELCMNSAQCKSNCCQHSSALGLARCTSMASENSECSVKTLYGIYYKCPCERGLTCEGDKTIVGSITNTNFGICHDAGRSKQ", "values": [{"measurement": "percentage of EdU-negative", "setting": "[1]; [3]", "result": "23.9 ± 2.4", "unit": "%"}, {"measurement": "percentage of EdU-negative", "setting": "[1]; protein concentration 0.225 µM", "result": "28.37 ± 0.035", "unit": "%"}, {"measurement": "percentage of EdU-negative", "setting": "[2]; [3]", "result": "5.19 ± 0.81", "unit": "%"}, {"measurement": "percentage of EdU-negative", "setting": "[2]; protein concentration 0.225 µM", "result": "6.85 ± 1.2", "unit": "%"}]}, {"sequence": "MALPFALMMALVVLSCKSSCSLGCNLSQTHSLNNRRTLMLMAQMRRISPFSCLKDRHDFEFPQEEFDGNQFQKAQAISVLHEMMQQTFNLFSTKNSSAAWDETLLEKFYIELFQQMNDLEACVIQEVGVEETPLMNEDSILAVKKYFQRITLYLMEKKYSPCAWEVVRAEIMRSLSFSTNLQKRLRRKD", "values": [{"measurement": "percentage of EdU-negative", "setting": "[1]; protein concentration 0.03 µM", "result": "49.17 ± 0.42", "unit": "%"}, {"measurement": "percentage of EdU-negative", "setting": "[1]; protein concentration 0.3 µM", "result": "48.8 ± 4.3", "unit": "%"}, {"measurement": "percentage of EdU-negative", "setting": "[2]; protein concentration 0.03 µM", "result": "21.5 ± 5.7", "unit": "%"}, {"measurement": "percentage of EdU-negative", "setting": "[2]; protein concentration 0.3 µM", "result": "34.2 ± 2.4", "unit": "%"}]}, {"sequence": "MWLPRVSSTAVTALLLAQTFLLLFLVSRPGPSSPAGGEARVHVLVLSSWRSGSSFVGQLFNQHPDVFYLMEPAWHVWTTLSQGSAATLHMAVRDLVRSVFLCDMDVFDAYLPWRRNLSDLFQWAVSRALCSPPACSAFPRGAISSEAVCKPLCARQSFTLAREACRSYSHVVLKEVRFFNLQVLYPLLSDPALNLRIVHLVRDPRAVLRSREQTAKALARDNGIVLGTNGTWVEADPGLRVVREVCRSHVRIAEAATLKPPPFLRGRYRLVRFEDLAREPLAEIRALYAFTGLSLTPQLEAWIHNITHGSGPGARREAFKTSSRNALNVSQAWRHALPFAKIRRVQELCAGALQLLGYRPVYSEDEQRNLALDLVLPRGLNGFTWASSTASHPRN [Q9GZX3]", "values": [{"measurement": "percentage of EdU-negative", "setting": "[1]; [3]", "result": "24.3 ± 0.37", "unit": "%"}, {"measurement": "percentage of EdU-negative", "setting": "[1]; protein concentration 0.225 µM", "result": "31 ± 0.51", "unit": "%"}, {"measurement": "percentage of EdU-negative", "setting": "[2]; [3]", "result": "5.21 ± 0.9", "unit": "%"}, {"measurement": "percentage of EdU-negative", "setting": "[2]; protein concentration 0.225 µM", "result": "23.2 ± 3.6", "unit": "%"}]}, {"sequence": "MLPPMALPSVSWMLLSCLMLLSQVQGEEPQRELPSARIRCPKGSKAYGSHCYALFLSPKSWTDADLACQKRPSGNLVSVLSGAEGSFVSSLVKSIGNSYSYVWIGLHDPTQGTEPNGEGWEWSSSDVMNYFAWERNPSTISSPGHCASLSRSTAFLRWKDYNCNVRLPYVCKFTD", "values": [{"measurement": "percentage of EdU-negative", "setting": "[1]; [6]", "result": "24.2 ± 2.7", "unit": "%"}, {"measurement": "percentage of EdU-negative", "setting": "[1]; [7]", "result": "24.3 ± 1.6", "unit": "%"}, {"measurement": "percentage of EdU-negative", "setting": "[1]; [8]", "result": "26.7 ± 1.1", "unit": "%"}, {"measurement": "percentage of EdU-negative", "setting": "[1]; [9]", "result": "27.4 ± 2.9", "unit": "%"}, {"measurement": "percentage of EdU-negative", "setting": "[2]; [6]", "result": "5.46 ± 0.53", "unit": "%"}, {"measurement": "percentage of EdU-negative", "setting": "[2]; [7]", "result": "5.04 ± 0.18", "unit": "%"}, {"measurement": "percentage of EdU-negative", "setting": "[2]; [8]", "result": "7.94 ± 0.33", "unit": "%"}, {"measurement": "percentage of EdU-negative", "setting": "[2]; [9]", "result": "6.63 ± 1.3", "unit": "%"}]}]}
